Data as given in US20160002318A1.

Legend:
Test in all cases: cell-based or functional assay
[1] = molecular target: HA of influenza B virus B/Brisbane/60/2008 (live virus) (influenza B virus B/Brisbane/60/2008)
[2] = molecular target: HA of influenza B virus B/Malaysia/2506/2004 (live virus) (influenza B virus B/Malaysia/2506/2004)
[3] = molecular target: HA of influenza B virus B/Harbin/7/1994 (live virus) (influenza B virus B/Harbin/7/1994)
[4] = molecular target: HA of influenza B virus B/Florida/04/2006 (live virus) (influenza B virus B/Florida/04/2006)

Row | Binder | HI titers [1] | VNA titers [1] | HI titers [2] | VNA titers in µg/ml (*assay was done with 25 TCIDs) [2] | HI titers [3] | VNA titers [3] | HI titers [4] | VNA titers [4]
1 | CR8059 (antibody, V domains shown) VH: EVQLVQSGAEVKKPGASVRVSCRASGYIFTESGITWVRQAPGQGLEWMGWISGYSGDTKYAQKLQGRVTMTKDTSTTTAYMELRSLRYDDTAVYYCARDVQYSGSYLGAYYFDYWSPGTLVTVSS VL: SYVLTQPPSASGTPGQRVTISCSGSSSNIGTNYVYWYQQFPGTAPKLLIYRSYQRPSGVPDRFSGSKSGSSASLAISGLQSEDEADYYCATWDDSLNGWVFGGGTKLTVL | > 50 µg/mL | 4.55 µg/mL | > 50 µg/mL | 17.7 µg/mL | > 50 µg/mL | 2.39 µg/mL | > 50 µg/mL | 3.23 µg/mL
2 | CR8071 (antibody, V domains shown) VH: QVQLVQSGAEVKKPGASVRVSCRASGYIFTESGITWVRQAPGQGLEWMGWISGYSGDTKYAQKLQGRVTMTKDTSTTTAYMELRSLRYDDTAVYYCARDVQYSGSYLGAYYFDYWSPGTLVTVSS VL: QSVLTQPPSASGTPGQRVTISCSGSSSNIGTNYVYWYQQFPGTAPKLLIYRSYQRPSGVPDRFSGSKSGSSASLAISGLQSEDEADYYCATWDDSLDGWVFGGGTKLTVLR | > 50 µg/mL | 3.72 µg/mL | > 50 µg/mL | 14.9 µg/mL | > 50 µg/mL | 2.34 µg/mL | > 50 µg/mL | 2.12 µg/mL
3 | CR8031 (antibody, V domains shown) VH: EVQLVESGGGLVQPGRSLRLSCAASGFTFDEYIMHWVRQAPGKGPEWVAGINWKGNFMGYADSVQGRFTISRDNAKNSLYLQMNSLRADDTALYYCAKDRLESSAMDILEGGTFDIWGQGTMVT VL: QSALTQPASVSGSPGQSITISCTGTSSDVGGYNYVSWYQQHPGKAPKLMIYDVSSRPSGVSNRFSGSKSGDTASLSISGLQAEDEADYYCSSYTSSSTHVFGTGTKVTVL | – | – | – | > 50 µg/mL | – | 1.24 µg/mL | – | 0.88 µg/mL
4 | CR8033 (antibody, V domains shown) VH: EVQLVETGGGLVQPGRSLRLSCAASGFSFDEYTMHWVRQAPGKGLEWVAGINWKGNFMGYADSVQGRFTISRDNGKNSLYLQMNSLRAEDTALYYCAKDRLESSAMDILEGGTFDIWGQGTMVT VL: EIVLTQSPGTLSLSPGERATLSCRASQSVSSSYLAWYQQKPGQAPRLLIYGASTRATGIPARFSGSGSGTDFTLTISRLEPEDLAVYYCQQYGSSPWTFGQGTKVEIK | > 50 µg/mL | 5.95 µg/mL | > 50 µg/mL | 0.88 µg/mL | 0.39 µg/mL | 0.03 µg/mL | 0.22 µg/mL | 0.02 µg/mL
5 | CR11039 (antibody, V domains shown) VH: EVQLVQSGAEVKKPGESVKISCKTSGYAFTGYGISWVRQAPGQGLEWMGWINTYKFNTNYAQNLQGRVTMTIDTSTSAAYMELRSLRYEDTAVYFCARDWAGPFGNAFDVWGQGTMVTVSS VL: IQMTQSPSSLSASIGDRVAITCQASQDISDYLNWYQQQPGKAPKLLLYGASNLETGVPSRFSGSGSGTDFTFTISSLQPEDIATYYCQQYGNLPPTFGGGTKLEIK | 0.44 µg/mL | < 0.14 µg/mL | – | 0.06 µg/mL | – | 0.02 µg/mL | 0.63 µg/mL | < 0.06 µg/mL
6 | CR10023 (antibody, V domains shown) VH: EVQLVETGGGLVQPGRSLRLSCAASGFTFDDYAMHWVRQAPGKGLEWVSGINWVSTTMGYADSVKGRFTISRDNAKNSLYLQMNSLRAEDTALYYCAKDRLESAAIDILEGGTFDIRGQGTMVTVSS VL: QSALTQPPSASGSPGQSVTISCTGTSSDVGGYNYVSWYQQHPGKAPKLMIYDVSKRPSGVPDRFSGSKSGNTASLTISGLQAEDEAEYYCSSYASGSTYVFGTGTKVTVL | > 50 µg/mL | 7.07 µg/mL | > 50 µg/mL | 12.5 µg/mL | 1.1 µg/mL | 0.26 µg/mL | 1.56 µg/mL | < 0.55 µg/mL
7 | CR11035 (antibody, V domains shown) VH: QVQLVQSGAEVKKPGSSVKVSCKTSGYAFNGYGISWVRQAPGQGLEWVAWINTYKVNTHYAQNLRGRVTVSIDTSTTTAYMELRSLRSDDTAVYYCARDWGGPFGNAFDFWGQGTMVTVSS VL: DIQMTQSPSSLAASIGDSVTITCRASQSVGSYLNWYQQKPGKAPKLLIYGASNVQSGVPSRFSGSESGTESTLTINNLQPEDSATYYCQQSYSTPRTFGQGTKVEIK | 0.26 µg/mL | 0.93 µg/mL | – | 0.53 µg/mL | – | 0.16 µg/mL | > 10 µg/mL | < 0.06 µg/mL
8 | CR8034 (antibody, V domains shown) VH: EVQLVETGGGLVQPGRSLRLSCAASGFTFDEYIMHWVRQAPGKGPEWVAGINWKGNFMGYADSVQGRFTISRDNAKNSLYLQMNSLRADDTALYYCAKDRLESSAMDILEGGTFDIWGQGTMVTVSS VL: DIQMTQSPSSLSASVGDRVTITCRASQGIRNDLGWYQQKPGKAPKRLIYAASSLQSGVPSRFSGSGSGTDFTLTISSLQPEDFATYYCQQANTYPLTFGGGTKLEIK | – | – | – | 2.31 µg/mL | – | 0.29 µg/mL | – | 0.12 µg/mL
9 | CR8032 (antibody, V domains shown) VH: EVQLVESGGGLVQPGRSLRLSCAASGFSFDEYIMHWVRQAPGKGLEWVAGINWKGNFMGYADSVQGRFTISRDNGKNSLYLQMNSLRAEDTALYYCAKDRLESSAMDILEGGTFDIWGQGTMVTVSS VL: QSALTQPASVSGSPGQSITISCTGTRRDVGDYKYVSWYQQHPGKAPKLMIYDVSNRPSGVSNRFSGSKSGTTASLTISGLQAEDEADYYCSSYTTSNTRVFGGGTKLTVL | – | – | – | 3.88 µg/mL | – | 0.69 µg/mL | – | 0.69 µg/mL
10 | CR8035 (antibody, V domains shown) VH: EVQLVESGGGLVQPGRSLRLSCAASGFTFDEYIMHWVRQAPGKGPEWVAGINWKGNFMGYADSVQGRFTISRDNAKNSLYLQMNSLRADDTALYYCAKDRLESSAMDILEGGTFDIWGQGTMVTVSS VL: SSELTQDPAVSVALGQTVRITCQGDSLRSYYASWYQQKPGQAPVLVIYGKNNRPSGIPDRFSGSSSRNTASLTITGAQAEDEADYYCDSRDSSGTHYVFGGGTKVTVL | – | – | – | 4.46 µg/mL | – | 0.66 µg/mL | – | 0.66 µg/mL
11 | CR11036 (antibody, V domains shown) VH: EVQLVQSGAEVKKPGASVTVSCKASGYAFTSYYLHWVRQAPGQGLEWMGIMNLHGGSTTYAQKFQGRVTMTRDTSTRTVYMELSGLRSEDSAVYYCARESPDSSGYPGYYGMDVWGQGTTVTVSS VL: EIVLTQSPGTLSLSPGERATLSCRASQSVSSDFFAWYQQKRGQTPTLLIYGTSTRATGIPDRFSGSGSGTDFTLSVARLEPEDFAVYYCQQYGSSTWTFGQGTKVEIK | > 10 µg/mL | < 0.14 µg/mL | – | 0.22 µg/mL | – | 0.02 µg/mL | > 10 µg/mL | < 0.06 µg/mL
12 | CR11038 (antibody, V domains shown) VH: EVQLVESGAEVKKPGASVKVSCKASGYAFTSYYLHWVRQAPGQGLEWMGIMNPHGGSTTYAQKFQGRVTMTRDTSTSTVYMELSSLRSEDTAVYYCARESPDSSGYPGYYGMDVWGQGTTVTVSS VL: SYELTQPPSASGTPGQRVTMSCSGSRSNIGSNPVSWFQQLPGMVPKLLIYTNDQRPSGVPDRFSGSKSGPSASLAISGLQSEDEADYYCAAWDDSLKGWVFGGGTKLTVL | 0.31 µg/mL | 0.55 µg/mL | – | 2.1 µg/mL | – | 0.05 µg/mL | 1.25 µg/mL | < 0.06 µg/mL
